Measurements: the supplement of paper PMC9112550, “Optimization of the antimicrobial peptide Bac7 by deep mutational scanning” (BMC Biology, 2022)

What follows are sequences tested on Escherichia coli TOP10 (assay: shrunken log2 fold change of peptide-encoding DNA abundance (4.5 h post-induction vs induction); higher = less antimicrobial activity (less host growth inhibition)). Details: time post-induction: 4.5 h; library: site-saturation at positions 5, 18, 19, 20.
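Further: peptides expressed intracellularly from a pBAD plasmid library in pooled LB shake-flask culture, induced with 0.3% L-arabinose, DNA abundance read by NGS, three biological replicates, DESeq2 with apeglm shrinkage.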

First: RRIRLRPPRLPRPRPRPRQRPRP
Second: RRIRGRPPRLPRPRPRPKALPRP
The “shrunken log2 fold change” value of the first is higher: 0.892 for the first, 0.0797 for the second.

RRIRHRPPRLPRPRPRPHKIPRP and RRIRMRPPRLPRPRPRPPMIPRP are within 0.2 log units of each other in “shrunken log2 fold change” value: -0.215 for the first, -0.0431 for the second.

First: RRIRDRPPRLPRPRPRPWPRPRP
Second: RRIRVRPPRLPRPRPRPHKMPRP
The “shrunken log2 fold change” value of the first is higher: 0.211 for the first, -0.264 for the second.

First: RRIRVRPPRLPRPRPRPMAEPRP
Second: RRIRHRPPRLPRPRPRPTYPPRP
The “shrunken log2 fold change” value of the first is higher: 2.52 for the first, 0.0921 for the second.

Compared with RRIRNRPPRLPRPRPRPQYLPRP, RRIRWRPPRLPRPRPRPAFDPRP is higher in “shrunken log2 fold change” value: -0.123 for the first, 0.397 for the second.

RRIRIRPPRLPRPRPRPSQTPRP and RRIRQRPPRLPRPRPRPGWEPRP are within 0.2 log units of each other in “shrunken log2 fold change” value: -0.0359 for the first, -0.00991 for the second.

RRIRSRPPRLPRPRPRPVFWPRP and RRIRLRPPRLPRPRPRPTHDPRP are within 0.2 log units of each other in “shrunken log2 fold change” value: 0.365 for the first, 0.324 for the second.

RRIRFRPPRLPRPRPRPFKPPRP and RRIRHRPPRLPRPRPRPINAPRP are within 0.2 log units of each other in “shrunken log2 fold change” value: -0.147 for the first, 0.0354 for the second.

RRIRHRPPRLPRPRPRPLIRPRP and RRIRDRPPRLPRPRPRPQVNPRP are within 0.2 log units of each other in “shrunken log2 fold change” value: -0.217 for the first, -0.182 for the second.

RRIRLRPPRLPRPRPRPNGNPRP and RRIRNRPPRLPRPRPRPVVDPRP are within 0.2 log units of each other in “shrunken log2 fold change” value: -0.218 for the first, -0.274 for the second.

First: RRIRRRPPRLPRPRPRPECVPRP
Second: RRIRLRPPRLPRPRPRPIYSPRP
The “shrunken log2 fold change” value of the first is higher: 0.419 for the first, 0.0408 for the second.

First: RRIRTRPPRLPRPRPRPLDKPRP
Second: RRIRKRPPRLPRPRPRPRVEPRP
The “shrunken log2 fold change” value of the first is lower: -0.18 for the first, 0.144 for the second.

Compared with RRIRQRPPRLPRPRPRPQLMPRP, RRIRARPPRLPRPRPRPIKDPRP is higher in “shrunken log2 fold change” value: -0.166 for the first, 0.0786 for the second.

Going from RRIRRRPPRLPRPRPRPQAKPRP to RRIRPRPPRLPRPRPRPDQNPRP, the “shrunken log2 fold change” value falls from 0.418 to -0.065.

Compared with RRIRGRPPRLPRPRPRPNPHPRP, RRIRRRPPRLPRPRPRPTLAPRP is higher in “shrunken log2 fold change” value: 0.216 for the first, 0.939 for the second.

First: RRIRWRPPRLPRPRPRPTLKPRP
Second: RRIRPRPPRLPRPRPRPIGAPRP
The “shrunken log2 fold change” value of the first is lower: 0.0453 for the first, 0.288 for the second.

First: RRIRSRPPRLPRPRPRPGYLPRP
Second: RRIRRRPPRLPRPRPRPNKRPRP
The “shrunken log2 fold change” value of the first is lower: -0.388 for the first, -0.0621 for the second.

RRIRRRPPRLPRPRPRPCEGPRP and RRIRDRPPRLPRPRPRPGNNPRP are within 0.2 log units of each other in “shrunken log2 fold change” value: -0.0173 for the first, -0.125 for the second.

RRIRPRPPRLPRPRPRPKWHPRP and RRIRKRPPRLPRPRPRPIWDPRP are within 0.2 log units of each other in “shrunken log2 fold change” value: 0.173 for the first, -0.0152 for the second.

RRIRWRPPRLPRPRPRPMTRPRP and RRIRQRPPRLPRPRPRPYDEPRP are within 0.2 log units of each other in “shrunken log2 fold change” value: 0.0972 for the first, -0.00145 for the second.

Compared with RRIRCRPPRLPRPRPRPQDLPRP, RRIRHRPPRLPRPRPRPDTVPRP is higher in “shrunken log2 fold change” value: -0.472 for the first, 0.028 for the second.

RRIRVRPPRLPRPRPRPVTTPRP and RRIRKRPPRLPRPRPRPNPTPRP are within 0.2 log units of each other in “shrunken log2 fold change” value: 0.126 for the first, 0.249 for the second.

First: RRIRARPPRLPRPRPRPPQSPRP
Second: RRIRLRPPRLPRPRPRPLVNPRP
The “shrunken log2 fold change” value of the first is higher: 0.993 for the first, -0.346 for the second.

RRIRERPPRLPRPRPRPDLEPRP and RRIRIRPPRLPRPRPRPPKTPRP are within 0.2 log units of each other in “shrunken log2 fold change” value: -0.0701 for the first, -0.00537 for the second.

RRIRSRPPRLPRPRPRPNESPRP and RRIRCRPPRLPRPRPRPVDCPRP are within 0.2 log units of each other in “shrunken log2 fold change” value: -0.153 for the first, -0.2 for the second.

First: RRIRVRPPRLPRPRPRPMWYPRP
Second: RRIRMRPPRLPRPRPRPWDTPRP
The “shrunken log2 fold change” value of the first is lower: -0.62 for the first, -0.0606 for the second.

RRIRTRPPRLPRPRPRPFHWPRP and RRIRERPPRLPRPRPRPTLMPRP are within 0.2 log units of each other in “shrunken log2 fold change” value: 0.036 for the first, 0.0249 for the second.

Compared with RRIRDRPPRLPRPRPRPYACPRP, RRIRFRPPRLPRPRPRPQHCPRP is lower in “shrunken log2 fold change” value: 0.0334 for the first, -0.461 for the second.

Compared with RRIRKRPPRLPRPRPRPFIYPRP, RRIRFRPPRLPRPRPRPRWLPRP is higher in “shrunken log2 fold change” value: -0.144 for the first, 0.269 for the second.

RRIRDRPPRLPRPRPRPISAPRP and RRIRNRPPRLPRPRPRPADEPRP are within 0.2 log units of each other in “shrunken log2 fold change” value: 0.0787 for the first, -0.00151 for the second.

Going from RRIRARPPRLPRPRPRPQQSPRP to RRIRDRPPRLPRPRPRPGRKPRP, the “shrunken log2 fold change” value falls from 0.54 to 0.0333.

Compared with RRIRPRPPRLPRPRPRPHHSPRP, RRIRQRPPRLPRPRPRPRFRPRP is higher in “shrunken log2 fold change” value: -0.454 for the first, 0.0281 for the second.

Compared with RRIRIRPPRLPRPRPRPEPEPRP, RRIRQRPPRLPRPRPRPLDYPRP is lower in “shrunken log2 fold change” value: 0.421 for the first, 0.13 for the second.

RRIRMRPPRLPRPRPRPILLPRP and RRIRTRPPRLPRPRPRPCYWPRP are within 0.2 log units of each other in “shrunken log2 fold change” value: -0.0378 for the first, 0.0189 for the second.

Going from RRIRPRPPRLPRPRPRPCSLPRP to RRIRCRPPRLPRPRPRPMEVPRP, the “shrunken log2 fold change” value falls from 0.527 to 0.015.

Going from RRIRWRPPRLPRPRPRPQYNPRP to RRIRMRPPRLPRPRPRPAIDPRP, the “shrunken log2 fold change” value rises from -0.554 to 0.718.

Going from RRIRYRPPRLPRPRPRPNTNPRP to RRIRHRPPRLPRPRPRPVYAPRP, the “shrunken log2 fold change” value rises from -1.09 to -0.375.

First: RRIRMRPPRLPRPRPRPGETPRP
Second: RRIRVRPPRLPRPRPRPQTDPRP
The “shrunken log2 fold change” value of the first is higher: 0.0143 for the first, -0.27 for the second.

First: RRIRDRPPRLPRPRPRPWAKPRP
Second: RRIRKRPPRLPRPRPRPPPYPRP
The “shrunken log2 fold change” value of the first is lower: -0.0135 for the first, 0.249 for the second.

First: RRIRKRPPRLPRPRPRPAANPRP
Second: RRIRKRPPRLPRPRPRPNIEPRP
The “shrunken log2 fold change” value of the first is higher: 0.647 for the first, 0.115 for the second.

Compared with RRIRTRPPRLPRPRPRPWSPPRP, RRIRHRPPRLPRPRPRPKRCPRP is higher in “shrunken log2 fold change” value: -0.37 for the first, -0.0661 for the second.

RRIRRRPPRLPRPRPRPARQPRP and RRIRDRPPRLPRPRPRPWIEPRP are within 0.2 log units of each other in “shrunken log2 fold change” value: -0.0115 for the first, 0.135 for the second.

Compared with RRIRVRPPRLPRPRPRPETPPRP, RRIRIRPPRLPRPRPRPSIVPRP is lower in “shrunken log2 fold change” value: 1.14 for the first, -0.477 for the second.

First: RRIRRRPPRLPRPRPRPLLWPRP
Second: RRIRKRPPRLPRPRPRPLYHPRP
The “shrunken log2 fold change” value of the first is higher: 0.421 for the first, -0.364 for the second.

Going from RRIRWRPPRLPRPRPRPTFFPRP to RRIRQRPPRLPRPRPRPNLNPRP, the “shrunken log2 fold change” value falls from 0.312 to -0.221.

RRIRPRPPRLPRPRPRPYTIPRP and RRIRWRPPRLPRPRPRPNESPRP are within 0.2 log units of each other in “shrunken log2 fold change” value: 0.00679 for the first, -0.0337 for the second.

First: RRIRCRPPRLPRPRPRPKHIPRP
Second: RRIRIRPPRLPRPRPRPGRLPRP
The “shrunken log2 fold change” value of the first is lower: -0.443 for the first, 0.12 for the second.

Compared with RRIRSRPPRLPRPRPRPCDFPRP, RRIRYRPPRLPRPRPRPCLHPRP is lower in “shrunken log2 fold change” value: -0.108 for the first, -0.633 for the second.

Compared with RRIRERPPRLPRPRPRPQVAPRP, RRIRKRPPRLPRPRPRPPMWPRP is higher in “shrunken log2 fold change” value: -0.366 for the first, 0.297 for the second.

Compared with RRIRQRPPRLPRPRPRPTPEPRP, RRIRSRPPRLPRPRPRPQASPRP is higher in “shrunken log2 fold change” value: 0.0617 for the first, 0.552 for the second.

First: RRIRPRPPRLPRPRPRPKPRPRP
Second: RRIRCRPPRLPRPRPRPGDYPRP
The “shrunken log2 fold change” value of the first is higher: 0.502 for the first, -0.081 for the second.

RRIRVRPPRLPRPRPRPFRQPRP and RRIRQRPPRLPRPRPRPEMNPRP are within 0.2 log units of each other in “shrunken log2 fold change” value: 0.0805 for the first, 0.0404 for the second.

Going from RRIRNRPPRLPRPRPRPQHWPRP to RRIRPRPPRLPRPRPRPMIEPRP, the “shrunken log2 fold change” value falls from 0.13 to -0.0882.

RRIRARPPRLPRPRPRPDFWPRP and RRIRRRPPRLPRPRPRPCDAPRP are within 0.2 log units of each other in “shrunken log2 fold change” value: 0.289 for the first, 0.221 for the second.

In the case of RRIRMRPPRLPRPRPRPERHPRP, the “shrunken log2 fold change” value is reported as 0.764.
